For this test, the target named is T1, recombinant human ROR1-ECD protein (human, UniProt Q01973 30-406).
T1 construct: also called human ROR1 extracellular domain
Description: BLI (Octet RED96), FIT-Ig captured on anti-hIgG Fc sensors, ROR1 ECD in solution. How it is done:
The ROR1/CD3 FIT-Ig proteins were assayed for and ranked by dissociation rate constant (koff, “off-rate”) using an Octet®RED96 biolayer interferometry (Pall FortéBio LLC). Anti-hIgG Fc Capture (AHC) Biosensors (Pall) were first exposed to antibody at a concentration of 100 nM for 30 seconds to capture antibody, then dipped into running buffer (1× pH 7.2 PBS, 0.05% Tween 20, 0.1% BSA) for 60 seconds to check baseline. Sensors with captured antibody were dipped into recombinant human ROR1 ECD protein at 10 ug/ml for 5 minutes to measure association, followed by dipped into running buffer for 1200 seconds to measure dissociation. The association and dissociation curves were fitted to a 1:1 Langmuir binding model using ForteBio Data Analysis software (Pall). The off-rate ratios were calculated by the off-rate of antibody to that of FIT1007-12B. Lower ratio indicates slower dissociation of the antibody in comparison with the parental chimeric antibody FIT1007-12B.

From patent US20240010753A1 (EPIMAB BIOTHERAPEUTICS HK, published 2024) come the findings set out here.

T1 sequence (Q01973 30-406): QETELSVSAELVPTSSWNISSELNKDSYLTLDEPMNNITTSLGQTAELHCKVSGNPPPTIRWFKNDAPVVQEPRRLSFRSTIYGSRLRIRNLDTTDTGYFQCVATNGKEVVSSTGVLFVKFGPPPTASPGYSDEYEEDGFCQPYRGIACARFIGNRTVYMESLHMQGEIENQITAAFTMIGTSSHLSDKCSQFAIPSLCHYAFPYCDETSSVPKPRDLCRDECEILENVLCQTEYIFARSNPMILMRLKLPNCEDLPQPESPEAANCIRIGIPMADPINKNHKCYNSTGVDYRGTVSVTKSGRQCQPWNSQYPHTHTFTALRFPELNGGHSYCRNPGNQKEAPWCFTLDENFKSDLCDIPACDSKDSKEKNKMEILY

B1: FIT1007-12B-15 (bispecific antibody, human IgG1, kappa, L234A L235A)
chain 1: not shown
chain 2: QVQLQQSGPELVKPGASVKISCKASGYAFSRSWMNWVKQRPEKGLEWIGRIYPGNADIKYQGNFKGKATLTADKSSSTAYMQLSSLTSEDSAVYFCAHIYYDFYYALDYWGQGTSVTVSSASTKGPSVFPLAPSSKSTSGGTAALGCLVKDYFPEPVTVSWNSGALTSGVHTFPAVLQSSGLYSLSSVVTVPSSSLGTQTYICNVNHKPSNTKVDKKVEPKSC
chain 3: not shown
notes: Chimeric ROR1 arm with CDR-H2 point mutations (AQ); ROR1xCD3 FIT-Ig, no linkers
As for B1, the binding result is “no binding (tested: 10 ug/ml)”.
